In the DeepSol protein solubility set:

assay: soluble on expression in E. coli; label from the status in PepcDB or PDB records

Sequence | soluble on expression in E. coli
MPSARLQQQFIRLWQCCEGKSQDTTLNELAALLSCSRRHMRTLLNTMQDRGWLTWEAEVGRGKRSRLTFLYTGLALQQQRAEDLLEQDRIDQLVQLVGDKATVRQMLVSHLGRSFRQGRHILRVLYYRPLRNLLPGSALRRSETHIARQIFSSLTRINEENGELEADIAHHWQQISPLHWRFFLRPGVHFHHGRELEMDDVIASLKRINTLPLYSHIADIVSPTPWTLDIHLTQPDRWLPLLLGQVPAMILPREWETLSNFASHPIGTGPYAVIRNSTNQLKIQAFDDFFGYRALIDEVNVWVLPEIADEPAGGLMLKGPQGEEKEIESRLEEGCYYLLFDSRTHRGANQQVRDWVSYVLSPTNLVYFAEEQYQQLWFPAYGLLPRWHHARTIKSEKPAGLESLTLTFYQDHSEHRVIAGIMQQILASHQVTLKIKEIDYDQWHTGEIESDIWLNSANFTLPLDFSVFAHLCEVPLLQHCIPIDWQADAARWRNGEMNLANWCQQLVASKAMVPLLHHWLIIQGQRSMRGLRMNTLGWFDFKSAWFAPPDP | not soluble
MPSEPGKNMIQHAGLGYRRDLAEDFLSLSENSPICFIEAAPENWLKMGGWARKQFDRVAERLPLALHGLSMSLGGQAPLDTDLIDGIKEMMRRYDCTFFSDHLSYCHDGGHLYDLLPLPFTEEMVHHTARRIREVQDRLGCRIAVENTSYYLHSPLAEMNEVEFLNAVAREADCGIHLDVNNIYVNAVNHGLLSPEAFLENVDAERVCYIHIAGHDVETPELLIDTHGAAVLPTVWDLLELAYAKLPTIPPTLLERDFNFPPFSELEAEVAKIADYQTRAGKECRRAA | not soluble
MPSGLFMDLLPFLLDANLSATNPPAIPHWWKRQPLIPNLLSQELKNYLKLNVKEKNIQIADQVIIDETAGEVVIGANTRICHGAVIQGPVVIGANCLIGNWICPYISRHLLSLNPLQARCRRYSRGERLEHHHHHH | not soluble
MPSIDIDEDTSVETTTMTETPTLDLNAKVEIINFINTFDVKGNCYLYHEGEEKLVSTLLRPDDRKRISLMKELEEARTIRQLHKTRLFKDHPFLKKQKRIILLPYSSISKSHMQTSHYSEREINRTKIINTFWKSKLELHYDAAEASILVCSFLAQNIDRNTHGLGISQSKIAIVLGMSLRRVSDTLNRLEQLGYVRRYTEKAKRGKLSLGTFIQVTENFSSQFLPPKKIVGESEEKQKQGSEHQPQDPPEKHYFQFLQSLNDLRLELKNFIVNSEEPIPPVVLQQIFKVL | not soluble
MPSLFSEDKLPALTYHCSVELNGNIYIFGGLMPCYSYEEDAPMLNDFFVDGIKNLPPPLLPQVINNPSMVNNPHLYVASIPSCRFSKPKMGGYIPPPLLCVQGSKLTDRHIFFYGGFEIRTETRGDENGKYHLKKRLYVNNTGYILDIMSFKF | not soluble
MPSPARRSRRRRSSLLNFSFSEVDLEQQRRALEMFEQQMNDQAFAQLIHDHDVQHINNDANQVPAAPNTPPVPVPPPVQQPQASPNASPVSVLRRRRYANPEQERFGDISRRIHNPANQIPAAPNTQPEVPPTVQQPESSSQERASPTSPEITIFSTGLLGLRRRSSARISIRMSATAQTNLPITPIRRRRGRAVSPILEIEFENLSSSSSGTSGDSGNHSSPTNTNDQSFIGDDARTYDQEHVPIDFEGPSTSTGITDRHPRRRNQDGSHGECTMCFEVPVSPLGCNNCLQIIGCEECVDIWYRSSSKPSCPLCRRKWARKPDVSKMSVISVRKQSSLRRSKRRITSK | not soluble
MPSSGRGGAFFPDPCVFHGAYLPSGSSRWAKESTMFFIAKYKRNTEWLKMIFSNALHGVQEGSGFEWKAFVTLMPTELRVVSLSQELLRLWLVISYTVRDVRTYFFP | not soluble
MPSVPRVDRLKPIYTAAKALNFGWRFSDFLKIPAYNGISRYTNQLHRITVRFCKQSESSVGVRNFIENQLVEIGRKNPSVVIYAQPVRNSNPSIRAEYGNGRTLQINAKNMTQDEVSKDVHLLFSRSGEPVVKLESRQSALVPSIQGQWTPITWLPTEMNTEQLPAKQFSKHKSTATSATEYILQNPPK | not soluble
MPTKLSNKYHDEIEQNGFTVVRNFLSPQEIEKYTKASEALVQYARDGNWPHVRTRGKQFPPWPKNFSPDIWGVSGLLHPDLGELSKPFHDLYSDEKLLNVVCDILLIEKTDLSMELLNMLINPLTDFELDWHRDTIKPEVTPEEEAEDLLKFPYAGAQFNLALTEDDCLIAIPGSHNRVRTTEEREKTIDPNRRKEFITGEIRVQLQPGDLVFYNNNILHRAAYSSKNKRLTLHGSYGNVNQGKSRAKGILQHGVAEWLPRLETKNTNLKMLQEKLLNLAKEFEGVELGYALDG | soluble
MPTSIQFQRSSTAAEAANATVRNYPHHHQKQVQKVSLTRGMADVPEHVELSHTHVVGPSQCFSVVVQDVEAPVSTVWSILSRFEHPQAYKHFVKSCHVVIGDGREVGSVREVRVVSGLPAAFSLERLEIMDDDRHVISFSVVGGDHRLMNYKSVTTVHESEEDSDGKKRTRVVESYVVDVPAGNDKEETCSFADTIVRCNLQSLAKLAENTSKFS | not soluble
MPTTVNDLLRTYPADLGGVDREAMARCIEECLRCAQACTACADACLSEPTVADLTKCIRTDMDCADVCTATAAVLSRHTGYDANVTRAVLQACATVCAACGDECARHAGMHEHCRVCAEACRSCEQACQELLAGLGLEHHHHHH | not soluble
MPTVPIPARKAATTFDTPSKHERIEVKPPITRFIRRAITRVFGVWSHISTQVVRQWGWYPRVEPYVGYGTGDYSRLICRTVYAPKHAQSGELIRGIRGMLAVPAPRTHVQASIDDMPLNTVQIGVSEVYDKVDRTRDLGSEYAISDSAGYLDLVAEHRLVPGIHRVSYSVANRKPVSANLYTIPASAKVGIISDVDDTIMITQAPVPWKAAYNLLFLDPKKKASVPGMSVLFTRIADLFPGAPFFYLSTSPWNVESSIRNFITDHGFPEGPLLLRDLDPRPKTFVPTGPQHKLEFAEQLMADFPDMKFILVGDDGQKDPTTYATIARRYPGRVLAIVIRELSPRESTGLASVTGLTSTQPTPVTDVPVFTGTTGSNILKTMLPYLKTVLRLEHHHHHH | not soluble
MPVEEKKKGMAIHSSLSLSLSLSLSLSLSLCDSEREG | not soluble
MPVKCPGEYQVDGKKVILDEDCFMQNPEDWDEKVAEWLARELEGIQKMTEEHWKLVKYLREYWETFGSCPPIKMVTKETGFSLEKIYQLFPSGPAHGACKVAGAPKPTGCV | soluble
MPYYVYLLACGKHGTLYLGVTNDLVRRVHEHRSKATPGFSEHYGVGRLVWFEIYHDAITAITREKQLKKWRRDWKVRLIENQNPDWVDLYPGICR | not soluble
MQAEGEKSDKISKISTGIPRVDELLYGGFDGRDNIVVSGNNFSQKRSFIYNFIKSSANSGMKVIIINVDGSSESLLADLARRGTDLENIILLDGFSKNFQEKVPPNAEVIDDPSNVSSVLKQYMLRAQKEKDFIFVFLSATPYLMDFNDQNRKFFVQLVHWNRKNSLLSTYVLDDFVGQTTAEWFAYMMDFSLYFKNDGDYDYMRVLSLKPVRTKDWIRIYKDSDVFTLGSFNVERIR | not soluble
MQALILEQQDGKTLASVQHLEESQLPAGDVTVDVHWSSLNYKDALAITGKGKIIRHFPMIPGIDFAGTVHASEDPRFHAGQEVLLTGWGVGENHWGGLAERARVKGDWLVALPAGLSSRNAMIIGTAGFTAMLCVMALEDAGIRPQDGEVVVTGASGGVGSTAVALLHKLGYQVAAVSGRESTHGYLKSLGANRILSRDEFAESRPLEKQLWAGAIDTVGDKVLAKVLAQMNYGGCVAACGLAGGFALPTTVMPFILRNVRLQGVDSVMTPPARRAEAWARLVKDLPESFYAQAATEITLADAPKFADAIINNQVQGRTLVKIK | not soluble
MQALTTYKCIEKGIVVWLTGLPGSGKTTIATRLADLLQKEGYRVEVLDGDWARTTVSEGAGFTREERLRHLKRIAWIARLLARNGVIVICSFVSPYKQARNMVRRIVEEEGIPFLEIYVKASLEEVIRRDPKGLYKKALKGELENFTGITDPYEPPENPQLVLDTESNTIEHNVSYLYSLVKAVIE | soluble
MQANSEEYCELCGSQIRGKGITVSYEGSIITVCNSCYDRIRKHAVIVKADSKKSETRKKATLKPPKMENAELEIVTDYYKIIKTAREQLGISQQQLAQKLKVSENIVKRFESGKLKPTISQARQLEKILGIKLVTPLENNEESEKEFDDTGLTLGDVVNIKEGKK | not soluble
MQAYSNPGYSSFPSPTGLEPSCKSCGAHFANTARKQTCLDCKKNFCMTCSSQVGNGPRLCLLCQRFRATAFQREELMKMKVKDLRDYLSLHDISTEMCREKEELVLLVLGQQPVISQEDR | soluble
MQDEESLMWVQFGGDDGKQVVAELAMRADKYAVRTRDNSSPVLTGFEGVPTYAYSPAWVIEGRFEPYAEPMDVPIGTANPLVDGVHRSVGEVVFRAPGVPHEIRLHAEEEKLGALNVTFHDETNGDTTDEWRKVFIPRPRPDGSVVIDFNRAINYPSAFTPYGTCPMPVRGNSVDVRVEAGEKLPQGLEHHHHHH | soluble
MQDLIKQYNTTLRQLREAQKDAKEEDVKVLTDMISDITYSLEWMKKARRPGNRRGVERLAAYQRERACDPLLMQRYFRSMDDNLYEWDNHQQEHSIGEWDKVRLEDALSLLTEREKEVYLMSRGYCLTYREIARYLDITCSTVQSMIERAEKKIARQVNESLFCNCG | not soluble
MQDLLTLRFLDTYDNILFIGNSGVGKTHLAVSIGLECIDRGLSCLFITSTELVNRLIRAHKRGTSETMLKKYSGYSVLIIDEVGYLPFSKEGSNLLFQLINMRYERKSTIVTTNIPLSQWSEIFGNKKLTNALLDRLVHHSKLIQITGPSYRMKSYSENKEVKSLEHHHHHH | soluble
MQDRNFDDIAEKFSRNIYGTTKGQLRQAILWQDLDRVLEEIGGRKLRVLDAGGGEGQTAIKMAERGHQVTLCDLSGEMIARARQAAEAKGVSKDMHFIQCPAQDVASHLESPVDLILFHAVLEWVADPVGVLETLWSVLRPGGALSLMFYNANGLLMHNMVAGNFDYVQAGMPKRKKRTLSPDYPRDPAQVYQWLEAIGWQITGKTGVRVFHDYLREKHQQRDCYETLVELETRYCRQEPYISLGRYIHVTAIKSPALAADARITYE | not soluble
MQELQLKVTQAQVEIIDREKFEQNINEVVAKYQNYAVTAGTIKDDKQVLADLRKLKKQLSDERIKVKKELSKPADDIDGYIKQASKPLDDTIDKIATDVKEFEDHQKALRLDTVKSYLSNKASEYMLDPRIFDEKAMEYTKAGNFMADGVTLKKVTMKSLEDLVTFEYQKEQEVEKAKATISGQCAEYGMTDQPYIRMLKEMTLVEVLGQIKADYLAEKQK | not soluble
MQEVAMSSQEASKMLRTYNIAWWGNNYYDVNELGHISVCPDPDVPEARVDLAQLVKTREAQGQRLPALFCFPQILQHRLRSINAAFKRARESYGYNGDYFLVYPIKVNQHRRVIESLIHSGEPLGLEAGSKAELMAVLAHAGMTRSVIVCNGYKDREYIRLALIGEKMGHKVYLVIEKMSEIAIVLDEAERLNVVPRLGVRARLASQGSGKWQSSGGEKSKFGLAATQVLQLVETLREAGRLDSLQLLHFHLGSQMANIRDIATGVRESARFYVELHKLGVNIQCFDVGGGLGVDYEGTRSQSDCSVNYGLNEYANNIIWAIGDACEENGLPHPTVITESGRAVTAHHTVLVSNIIGVERNEYTVPTAPAEDAPRALQSMWETWQEMHEPGTRRSLREWLHDSQMDLHDIHIGYSSGIFSLQERAWAEQLYLSMCHEVQKQLDPQNRAHRPIIDELQERMADKMYVNFSLFQSMPDAWGIDQLFPVLPLEGLDQVPERRAVLLDITCDSDGAIDHYIDGDGIATTMPMPEYDPENPPMLGFFMVGAYQEILGNMHNLFGDTEAVDVFVFPDGSVEVELSDEGDTVADMLQYVQLDPKTLLTQFRDQVKKTDLDAELQQQFLEEFEAGLYGYTYLEDELEHHHHHH | not soluble
